# Experimental data reported in paper PMC3886899 (Nature, 2013).
# Target: SAMHD1(26-626) (human, UniProt Q9Y3Z3 26-626)
# Assay: SEC
# Sequence of SAMHD1(26-626) (Q9Y3Z3 26-626): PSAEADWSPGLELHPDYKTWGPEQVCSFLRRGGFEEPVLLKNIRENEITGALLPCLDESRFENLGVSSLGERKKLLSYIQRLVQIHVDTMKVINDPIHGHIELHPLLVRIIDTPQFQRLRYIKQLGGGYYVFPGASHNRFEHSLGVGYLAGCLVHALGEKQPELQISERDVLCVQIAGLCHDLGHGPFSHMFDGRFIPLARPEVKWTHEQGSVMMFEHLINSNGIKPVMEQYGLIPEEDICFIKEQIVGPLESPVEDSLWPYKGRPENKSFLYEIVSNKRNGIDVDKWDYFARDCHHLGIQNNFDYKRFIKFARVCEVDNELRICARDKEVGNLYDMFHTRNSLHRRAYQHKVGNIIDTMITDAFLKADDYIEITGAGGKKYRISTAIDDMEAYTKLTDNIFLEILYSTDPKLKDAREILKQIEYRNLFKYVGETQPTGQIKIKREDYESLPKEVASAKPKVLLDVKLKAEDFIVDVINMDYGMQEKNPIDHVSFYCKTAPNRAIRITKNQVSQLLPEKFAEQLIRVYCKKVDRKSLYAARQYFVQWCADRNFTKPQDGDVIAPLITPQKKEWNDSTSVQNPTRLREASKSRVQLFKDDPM
binder,measurement,value
Vpxsm/DCAF1-CtD (complex) chain 1: MSDPRERIPPGNSGEETIGEAFDWLDRTVEEINRAAVNHLPRELIFQVWRRSWEYWHDEMGMSVSYTKYRYLCLIQKAMFMHCKKGCRCLGGEHGAGGWRPGPPPPPPPGLA chain 2: not shown,binding result,binds
